Target: T1, Boc-QAR-AMC
T1 sequence (peptide, N-terminal Boc; C-terminal AMC): QAR

fluorescence of cleaved Boc-QAR-AMC (370 nm excitation, 450 nm emission), cell-based protease assay: 3 times
Substance: human Pro115 on cells (enzyme)

Source: patent publication US8354508B2
